Results on 2 molecules are retold here after patent publication WO2018083080A2 (dated 2018).

Assay [1] addresses T1, recombinant human CFP HIS-tagged (human, UniProt P27918 28-469).
T1 construct: Secreted from CHO cells, purified on Ni-NTA and by size exclusion; also called huCFP-HIS; HuCFP-HIS; not shown: HIS tag inserted through the reverse primer (C-terminal)
Nature of the assay: flow cytometry; CFP-HIS on enriched mouse NK cells.

Assay [2] has as its target T1, recombinant human CFP HIS-tagged. The experiment in a line: flow cytometry; CFP-HIS on cells. For orientation: Flow cytometry measures light scatter and fluorescence of single cells or particles in a stream.

T1 sequence (P27918 28-469): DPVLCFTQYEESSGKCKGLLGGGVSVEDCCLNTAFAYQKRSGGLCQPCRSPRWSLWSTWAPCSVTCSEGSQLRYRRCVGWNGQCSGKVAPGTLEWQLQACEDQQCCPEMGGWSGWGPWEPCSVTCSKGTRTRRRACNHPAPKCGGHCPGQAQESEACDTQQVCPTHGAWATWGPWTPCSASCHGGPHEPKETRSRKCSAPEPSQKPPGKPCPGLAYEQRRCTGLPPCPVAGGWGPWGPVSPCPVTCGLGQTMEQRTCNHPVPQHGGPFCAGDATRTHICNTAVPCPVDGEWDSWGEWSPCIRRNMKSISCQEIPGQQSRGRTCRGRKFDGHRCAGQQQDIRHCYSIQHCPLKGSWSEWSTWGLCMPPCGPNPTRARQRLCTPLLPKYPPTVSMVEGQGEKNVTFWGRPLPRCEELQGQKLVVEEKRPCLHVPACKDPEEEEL

B1: mouse NKp46 on Ncr1 WT/WT enriched mouse NK cells (receptor, UniProt Q8C567 17-325, looked up)
chain: QRINTEKETLPKPIIWAKPSIMVTNGNSVNIWCQGAQSASEYQLYFEGSFFALERPKPSRSMNKVRFFISQMTSHTAGIYTCFYQSGELWSKSSNPLKLVVTGLYDTPNLWVYPRPEVTLGENVTFFCQLKTATSKFFLLKERGSNHIQNKYGNIQAEFPMGPVTRAHRGTYRCFGSYNDYAWSFPSEPVTLLITGGVENSSLAPTDPTSSLDYWEFDLSTNESGLQKDSAFWDHTTQNLIRIGLACIILITLVWLLTEDWLSKRKDHEEANRLTNWECRRRWRMQHYFEEEQRNAISMMELKATPGAL
notes: whole, on cells; also called Ncr1 WT/WT NK cells
Take B1: in assay [1], the binding result is given as “binds”.

B2: NKp30 on DOMsp30 cells (receptor, UniProt O14931 19-135, looked up)
chain: LWVSQPPEIRTLEGSSAFLPCSFNASQGRLAIGSVTWFRDEVVPGKEVRNGTPEFRGRLAPLASSRFLHDHQAELHIRDVRGHDASIYVCRVEVLGLGVGTGNGTRLVVEKEHPQLG
notes: also called DOMsP cells expressing NKp30
As for B2, the binding result in assay [2] is “no binding (tested: 10ug/ml)”.
